In patent US20190062389A1:

Key:
[1] = target: HLA-A*02:06 molecule (product of HLA-A*02:06 gene) on RA2.6 cells (human); assay: flow cytometry, RA2.6 cells, peptide dilution series, BB7.2 staining
[2] = target: HLA-A*24:02 molecule (product of HLA-A*24:02 gene) on C1R-A24 cells (human); assay: flow cytometry, acid-stripped C1R-A24 cells with added b2m, peptide dilution series, 17A12 staining
[3] = target: HLA-A*02:01 molecule (product of HLA-A*02:01 gene) on T2 cells (human); assay: flow cytometry, T2 cells with added b2m, peptide dilution series, BB7.2 staining

SLTPQAFEF (modifications not checked) [GPC3-derived peptide … (SEQ ID NO: 5)] gave a Binding Experiment Data (log Kd) (log Kd (concentration unit not given)) [1] of -4.52, a Binding Experiment Data (log Kd) (log Kd (concentration unit not given)) [2] of -7.11 and a Binding Experiment Data (log Kd) (log Kd (concentration unit not given)) [3] of -4.93.
